B1: TPR t1 (parent)
chain: GACCAAUCUGCCCUCAGAGCUCGAGAACAUCUUCGGAUGCAGAGGAGGCAGGCUUCGGUGGCGCGAUAGCGCCAACGUCCUCAACCUCCAAUGCAUCCCACCACAUGAUGAUGCCUGAAGAGCCUUGGUUUUUUG

Variants of: B1
Assay: polymerase ribozyme fitness, log enrichment relative to wild type (log ratio); higher = more active; in vitro selection for triplet polymerase activity
Method in brief: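 Mutant libraries of each subunit of a heterodimeric triplet polymerase ribozyme were built by PCR and transcribed. Each library went through one round of in vitro selection in triplicate: annealing with biotinylated primer, partner subunit and triplets, frozen incubation at −7 °C, gel excision of extended constructs, streptavidin-bead capture and RT-PCR. Input and output libraries were Illumina-sequenced; only genotypes with ≥10 input reads and ≥1 read per output were kept. Fitness is log2(genotype enrichment/wild-type enrichment), using inverse-variance-weighted replicate averages.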

Question: With GACCAAUCUGCCCUCAGAGCUCGAGAACAUCUUCGGAUGCAGAGGAUUCAGGCUUCGGAGGCGCGAUAGCGCCAACGUUCUCAACCUCCAAUGCAUCCCACCACAUGAUGAUGCCUGAAGAGCCUUGGUUUUUUG as the variant, how does the “polymerase ribozyme fitness (log ratio)” value read?
Answer: The value was -3.11.

Question: With GACCAAUCUGCCCUCAGAGCUCGAGAACAUCUUCGGAUGCAGAGGAUGCAGGCUUCGGUGGCUCGAUAGCGCCAACGUCCUCAAACUCCAAUGCAUCCCACCACAUGAUGAUGCCUGAAGAGCCUUGGUUUUUUG as the variant, how does the “polymerase ribozyme fitness (log ratio)” value read?
Answer: Its value is -3.29.

Question: Which “polymerase ribozyme fitness (log ratio)” value does the source give for GACCAAUCUGCCCUCAGAGCUCGAGAACAUCUUCGGAUGCAGAGGAUUCAGGCUUCGGUGGCGCGAUAGCGCCAACGUUCUCAACCUCCAAUGCAUCCCACCACAUGAUGAUGCCUGAAGAGCCUUGGUUUUUUG here?
Answer: The value was -2.83.

Question: Which “polymerase ribozyme fitness (log ratio)” value does the source give for GACCAAUCUGCCCUCAGAGCUCGAGAACAUCUUCGGAUGCAGAGGAUGCAGGCUUCGCUGGCGCGAUAGCGCCAACGUCCUUAACUUCCAAUGCAUCCCACCACAUGAUGAUGCCUGAAGAGCCUUGGUUUUUUG here?
Answer: Its value is -1.04.

Question: With GACCAAUCUGCCCUCAGAGCUCGAGAACAUCUUCGGAUGCAGAGGAUGCAGGCUUCAGUGGCGCGAUAGCGCCAACGUCCUCAACCUCCAAUGCAUCCCACCACAUGAUGAUGCCUGAAGAGCCUUGGUUUUUUG as the variant, how does the “polymerase ribozyme fitness (log ratio)” value read?
Answer: Its value is -1.73.

Question: With GACCAAUCUGCCCUCAGAGCUCGAGAACAUCUUCGGAUGCAGAGGAUGCAGGCUUCGGUGGCGCGAUAUCGCCAACGUCCUCAACCUCCAAUGCAUCCCACCACAUGAUGAUGCCUGAAGAGCCUUGGUUUUUUG as the variant, how does the “polymerase ribozyme fitness (log ratio)” value read?
Answer: The value was -0.915.

Question: With GACCAAUCUGCCCUCAGAGCUCGAGAACAUCUUCGGAUGCAGAGGAUGCAGGCUUCGGUGGCGCGAUAGCACCAACGUCCUCAACCACCAAUGCAUCCCACCACAUGAUGAUGCCUGAAGAGCCUUGGUUUUUUG as the variant, how does the “polymerase ribozyme fitness (log ratio)” value read?
Answer: The value was -4.27.

Question: For GACCAAUCUGCCCUCAGAGCUCGAGAACAUCUUCGGAUGCAGAGGAUGCAGGCUUCGGUGGCGCGAUAGCGCCAACGUCCUCAACCUCCAAUUCAUCCCACCACAUGAUGAUGCCUGAAGAGCCUUGGUUUUUUG, which “polymerase ribozyme fitness (log ratio)” value is on record?
Answer: The value was -2.97.

Question: For GACCAAUCUGCCCUCAGAGCUCGAGAACAUCUUCGGAUGCAGAGGAUGCAUGCUUCGGUGGCGCGAUAGCGCUAACGUCCUCAACCUCCAAUGCAUCCCACCACAUGAUGAUGCCUGAAGAGCCUUGGUUUUUUG, which “polymerase ribozyme fitness (log ratio)” value is on record?
Answer: The value was -6.37.

Question: Which “polymerase ribozyme fitness (log ratio)” value does the source give for GACCAAUCUGCCCUCAGAGCUCGAGAACAUCUUCGGAUGCAGAGGAUGCAGGCUUCGGUGGCGCGAUAGCGCCAACAUCCUCAACCUCCAAUGCAUCCCACCACAUGAUGAUGCCUGAAGAGCCUUGGUUUUUUG here?
Answer: The value was -2.15.

Question: With GACCAAUCUGCCCUCAGAGCUCGAGAACAUCUUCGGAUGCAGAGGAUGCAGGCUUCGGUGGCGCGAUAGCGCCAACUUCCUCAACCUCCAAUGCAUCCCACCACAUGAUGAUGCCUGAAGAGCCUUGGUUUUUUG as the variant, how does the “polymerase ribozyme fitness (log ratio)” value read?
Answer: The value was -2.07.

Question: With GACCAAUCUGCCCUCAGAGCUCGAGAACAUCUUCGGAUGCAGAGGAUGCAGGCUUCGGUGCCGCGAUAGCGCCAACGUCCUCAACCUCCAAUGCAUCCCACCACAUGAUGCUGCCUGAAGAGCCUUGGUUUUUUG as the variant, how does the “polymerase ribozyme fitness (log ratio)” value read?
Answer: The value was -2.97.

Question: With GACCAAUCUGCCCUCAGAGCUCGAGAACAUCUUCGGAUGCAGAGGAUGCAGGCUUCGGUUGCGCGAUAGCGCCAACGUCCUCAACCUCCAAUGCAUCCCACCACAUGAUGAGGCCUGAAGAGCCUUGGUUUUUUG as the variant, how does the “polymerase ribozyme fitness (log ratio)” value read?
Answer: Its value is -1.51.

Question: For GACCAAUCUGCCCUCAGAGCUCGAGAACAUCUUCGGAUGCAGAGGAUGCAGGCUUCGGUGGCGCGAUAGCGCCAACGUCCUCAACCUCCAAUGCAUCCCACCACAUGAUGAUGCCUGAAGAGACUUGGUUUUUUG, which “polymerase ribozyme fitness (log ratio)” value is on record?
Answer: Its value is -0.877.

Question: For GACCAAUCUGCCCUCAGAGCUCGAGAACAUCUUCGGAUGCAGAGGAUGCAUGCUUCGGUCGCGCGAUAGCGCCAACGUCCUCAACCUCCAAUGCAUCCCACCACAUGAUGAUGCCUGAAGAGCCUUGGUUUUUUG, which “polymerase ribozyme fitness (log ratio)” value is on record?
Answer: Its value is -3.98.

Question: Which “polymerase ribozyme fitness (log ratio)” value does the source give for GACCAAUCUGCCCUCAGAGCUCGAGAACAUCUUCGGAUGCAGAGGAUGCAGGCUUCGGUGGCGCGAUAGCGCCAACGUCCUCAACCUCCAAUGCAUCCCACCACAUGAUGAUGCCUGAAGAGCAUUGGUGUUUUG here?
Answer: The value was -0.902.

Question: For GACCAAUCUGCCCUCAGAGCUCGAGAACAUCUUCGGAUGCAGAGGAUGCAGGCUUCGGUGUCGCGAUAGCGCCAACGUCCUCAACCUCCAAUGCAUCCCACCACAUGAUAAUGCCUGAAGAGCCUUGGUUUUUUG, which “polymerase ribozyme fitness (log ratio)” value is on record?
Answer: The value was -3.87.

Question: Which “polymerase ribozyme fitness (log ratio)” value does the source give for GACCAAUCUGCCCUCAGAGCUCGAGAACAUCUUCGGAUGCAGAGGAUGCAGGCUUCGGUGGCGCGAUAGCGCCAACGUCCUCAACCUCCAAUGCAUCCCACCACAUGAUGAUGCAUGAAGAGCCUUGGUUUUUUG here?
Answer: Its value is -2.9.

Question: With GACCAAUCUGCCCUCAGAGCUCGAGAACAUCUUCGGAUGCAGAGGAUGCAGGCUUCGGUGCCGCGAUAGCGCCAACGUCCUCAACCUCCAAUGCAUCCCACCACAUGAUGAUGCCUGAAGAGCCUGGGUUUUUUG as the variant, how does the “polymerase ribozyme fitness (log ratio)” value read?
Answer: Its value is -4.45.

Question: Which “polymerase ribozyme fitness (log ratio)” value does the source give for GACCAAUCUGCCCUCAGAGCUCGAGAACAUCUUCGGAUGCAGAGGAUGCAGGCUUCGGUGGCGCGAUAGCGCCAACGUCCUCAACCUCCAAUGCAUCCCACCACAUGAUAAUGCCUGAAGAGCCUUGGUUUUUUG here?
Answer: Its value is -2.29.

Question: For GACCAAUCUGCCCUCAGAGCUCGAGAACAUCUUCGGAUGCAGAGGAUGCAGGCUUCGGUGGCGCGAUAGCGCCAACGUCCUCAACCUCCAAUGCAUCCCACCACAUGAUUAUGCCUGAAGAGCCUUGGUUUUUUG, which “polymerase ribozyme fitness (log ratio)” value is on record?
Answer: The value was -3.1.

Source: the RNAGym collection of RNA variant scans (doi:10.1073/pnas.2313332121)
